Results reported in patent publication US12365732 (23ANDME, dated 2025).

T1: cy-CD226 His tag (cynomolgus monkey, UniProt A0A2K5W1Z6 19-247, biotinylated)
T1 sequence: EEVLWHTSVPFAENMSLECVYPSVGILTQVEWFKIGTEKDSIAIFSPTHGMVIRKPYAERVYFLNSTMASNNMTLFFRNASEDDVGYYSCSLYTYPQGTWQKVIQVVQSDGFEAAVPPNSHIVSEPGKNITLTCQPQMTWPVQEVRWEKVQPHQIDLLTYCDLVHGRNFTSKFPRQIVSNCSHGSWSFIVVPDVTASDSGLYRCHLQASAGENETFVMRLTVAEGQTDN

T2: hu-CD226 His tag (human, UniProt Q15762 19-247, limits assumed, biotinylated)
T2 sequence (looked up): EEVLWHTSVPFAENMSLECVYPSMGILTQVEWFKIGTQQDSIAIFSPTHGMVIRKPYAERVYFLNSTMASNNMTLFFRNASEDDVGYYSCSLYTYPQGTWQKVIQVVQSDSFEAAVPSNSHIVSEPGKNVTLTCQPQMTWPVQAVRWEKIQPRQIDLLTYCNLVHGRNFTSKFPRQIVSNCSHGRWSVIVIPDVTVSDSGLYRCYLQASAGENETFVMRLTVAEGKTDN

T3: cy-CD96 (soluble, extracellular domain) (cynomolgus monkey, UniProt P40200 22-516 (human entry), biotinylated in Octet and blocking ELISA)
T3 construct: the assays name only cy-CD96; also called biotinylated cy-CD96
T3 chain: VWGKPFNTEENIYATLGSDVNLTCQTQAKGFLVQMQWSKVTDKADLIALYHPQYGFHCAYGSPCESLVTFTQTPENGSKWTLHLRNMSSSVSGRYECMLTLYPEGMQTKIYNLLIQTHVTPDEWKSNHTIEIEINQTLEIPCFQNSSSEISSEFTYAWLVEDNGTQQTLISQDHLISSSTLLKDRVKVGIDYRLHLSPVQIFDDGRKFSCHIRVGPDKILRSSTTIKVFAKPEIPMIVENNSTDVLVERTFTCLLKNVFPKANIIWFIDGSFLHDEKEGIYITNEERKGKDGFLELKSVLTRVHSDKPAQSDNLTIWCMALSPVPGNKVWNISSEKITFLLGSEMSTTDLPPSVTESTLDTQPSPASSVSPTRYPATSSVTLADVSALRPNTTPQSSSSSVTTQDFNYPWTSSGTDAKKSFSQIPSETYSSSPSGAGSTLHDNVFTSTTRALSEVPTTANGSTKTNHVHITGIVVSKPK

B1: mAb1.v7 IgG (humanized 12F8) (antibody, V domains shown)
VH: EVQLVQSGAEVKKPGASVKVSCKASGFTFTNNWMHWVRQAPGQGLEWIGMIHPNSGITNINEKFKNRVTMTTDTSTSTAYMELRSLRSEDTAVYYCRSDGTYEGYFDYWGQGTLVTVSS
VL: DIQLTQSPSSLSASVGDRVTITCKASQNVGTAIVWYQQKPGKAPKVLIYSASTRYTGVPSRFSGSGSGTDFTLTISSLQPEDFATYYCQQYSSSPLTFGQGTKVEIKG
notes: human IgG1 N297G
B2: h10G1 IgG (humanized 10G1) (antibody, V domains shown)
VH: EIQLVQSGSELKKPGASVKVSCKASGYPFTTYGMSWVRQAPGQGLEWMGWINTDSGVPTYADDFKGRFVFSLDTSVSTAYLQISSLKAEDTAVYFCARNIYYGWGNFDYWGQGTLVTVSS
VL: EIVMTQSPDFQSVTPKEKVTITCRASQDIYRNLHWYQQKPDQTPKLLIKHASDSISGIPSRFSGSGSGTDFTLTINSLEAEDAAAYYCLQGYSMPYTFGGGTKVEIKG
notes: human IgG1 N297G

Key:
huCD96D1-Fc = huCD96D1-Fc (human); assay: Octet, antibody on anti-Fc sensors
Sequence of huCD96D1-Fc (human) (chain, as listed by the source limits assumed): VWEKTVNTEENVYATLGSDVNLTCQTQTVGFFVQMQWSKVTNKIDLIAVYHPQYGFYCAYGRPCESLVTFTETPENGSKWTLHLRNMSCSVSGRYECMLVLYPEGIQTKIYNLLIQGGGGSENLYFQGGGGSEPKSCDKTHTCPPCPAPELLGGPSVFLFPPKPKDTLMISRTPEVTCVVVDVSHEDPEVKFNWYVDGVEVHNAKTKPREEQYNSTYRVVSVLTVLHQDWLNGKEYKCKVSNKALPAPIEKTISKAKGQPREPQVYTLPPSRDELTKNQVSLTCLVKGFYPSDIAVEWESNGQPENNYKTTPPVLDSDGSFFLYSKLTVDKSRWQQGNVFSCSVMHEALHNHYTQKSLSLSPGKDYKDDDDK
Procedure: Domain Binding Site Mapping mAb1.v7 and h10G1 were determined to bind the D1 domain of CD96. Epitope mapping experiments were performed on an OctetRed96 by capturing the antibodies on anti-Fc Octet sensors (ForteBio) and testing their binding to recombinant huCD96D1-Fc and huCD96D1D3.

cy-CD226 His tag = molecular target: T1, cy-CD226 His tag; assay: SPR 25C, biotin-CD226-His captured, IgG analyte
Procedure: (§1) To determine the binding affinity to hu-CD226 and cy-CD226 of mAb1.v7.NGS8, h10G1, hCD155 and anti-hCD226 antibody DX11 (Abcam, cat #Ab33397), SPR measurement with a BIACORE™ 8K instrument was performed. Briefly, a 1:4 dilution of Biotin CAPture Reagent (GE Healthcare) into HBS-EP buffer (0.01 M HEPES pH 7.4, 0.15 M NaCl, 3 mM EDTA, 0.005% Surfactant P20) was applied to the chip at 2 µL/min flow rate. For the kinetics measurements, 5 µg/ml of biotinylated hu-CD226 His tag (Sino biological, cat #10565-H08H) and cy-CD226 His tag (Arco biosystems, cat #DN1-052H9) was captured at 10 µL/min to achieve ~50 response units in the second flow cell (FC2). FC1 was kept as a reference. Next, 3-fold serial dilutions of IgG in HBS-P buffer (0.01 M HEPES pH 7.4, 0.15 M NaCl, 0.005% surfactant P20) from low (1.3 nM) to high (1000 nM) concentration were injected (flow rate: 30 µL/min) at 25° C. The sensorgram was recorded and subject to reference and buffer subtraction before evaluating by BIACORE® 8K Evaluation Software (version 1.1.1.7442). Association rates ($kon$) and dissociation rates ($koff$) were calculated using a simple one-to-one Langmuir binding model. The equilibrium dissociation constant (K_D) value was calculated as the ratio of $koff/kon$. […]

hu-CD226 His tag = molecular target: T2, hu-CD226 His tag; assay: SPR 25C, biotin-CD226-His captured, IgG analyte
Procedure: as §1

[1] = molecular target: T3, cy-CD96 (soluble, extracellular domain); assay: SPR 25C, IgG on Protein A, CD96 analyte
Procedure: SPR measurement with a BIACORE™ 8K instrument was performed to determine the monovalent binding affinity of mAb1.v7 and h10G1 IgG to hu-CD96, cy-CD96, and mo-CD96. Briefly, antibodies were diluted at 0.5 µg/mL in HBS-P buffer (0.01 M HEPES pH 7.4, 0.15 M NaCl, 0.005% Surfactant P20) and applied to the Protein A chip at 30 µL/min flow rate for 60 s in flow cell 2 (FC2). Then 3-fold serial dilutions of hu-CD96, cy-CD96, or mo-CD96 in HBS-P buffer (0.01 M HEPES pH 7.4, 0.15 M NaCl, 0.005% surfactant P20) from (0.4 nM) to high (100 nM) were injected (flow rate: 30 µL/min) at 25° C. to both flow cell 1 (FC1) and flow cell 2 (FC2). The sensorgram was recorded and subject to reference and buffer subtraction before evaluating by BIACORE® 8K Evaluation Software (version 1.1.1.7442). Association rates ($kon$) and dissociation rates ($koff$) were calculated using a simple one-to-one Langmuir binding model.

Binder	binding result (huCD96D1-Fc)	binding result (cy-CD226 His tag)	binding result (hu-CD226 His tag)	Kd [1] [nM]
B1	binds			
B2	binds	no binding (tested: 1000 nM highest)	no binding (tested: 1000 nM highest)	0.74
